Results reported in paper PMC11323535, “Neisserial adhesin A (NadA) binds human Siglec-5 and Siglec-14 with high affinity and promotes bacterial adhesion/invasion” (mBio, 2024).

Target: T1, recombinant soluble NadA (NadA_(24–350)) (Neisseria meningitidis strain 2996, UniProt Q8KH85 24-350)
T1 construct: Neisserial adhesin A (NadA) variant 3, N. meningitidis strain 2996, residues 24-350: ectodomain without the leader peptide and the anchor domain; Heated at 80°C for 2 h (thermally stressed, monomeric) in one SPR experiment; also called rNadA; NadA ectodomain
Assay: peptide or protein array; recombinant soluble human and mouse proteins spotted; rNadA_(24–350) 1 µM in Nap-PBS overlaid for 1 h; rabbit anti-NadA serum and AlexaFluor 647 anti-rabbit IgG; MFI ≥ 30,000 high reactivity, MFI < 5,000 no reactivity
Conditions: both partners purified

B1: Chromosome two open reading frame 66 (protein microarray) (natural protein, human, UniProt Q6UXQ4 39-117, looked up)
chain: ATVRNEDKWKPLNNPRNRDLFFRRLQAYFKGRGLDLGTFPNPFPTNENPRPLSFQSELTASASADYEEQKNSFHNYLKG
notes: human C2orf66, recombinant soluble protein; also called C2orf66; source: recombinant soluble protein produced at GNF, spotted on the microarray
B1: binds.

B2: Stathmin 2 (protein microarray) (natural protein, human, UniProt Q93045-2 1-187, looked up)
chain: MAKTAMAYKEKMKELSMLSLICSCFYPEPRNINIYTYDDMEVKQINKRASGQAFELILKPPSPISEAPRTLASPKKKDLSLEEIQKKLEAAEERRKSQEAQVLKQLAEKREHEREVLQKALEENNNFSKMAEEKLILKMEQIKENREANLAAIIERLQEKLVKFISSELKESIESQFLELQREGEKQ
notes: human stathmin 2, recombinant soluble protein; also called STMN2; source: recombinant soluble protein produced at GNF, spotted on the microarray
B2: binds.
